Values belong to the substance of their own block, whether it stands above or below them.
Tests used:
tcl1a_human TCL1A = tcl1a_human TCL1A (UniProt P56279)
vps29_human VPS29 = vps29_human VPS29 (UniProt Q9UBQ0)
inca1_human INCA1 = inca1_human INCA1 (UniProt Q0VD86)
cep76_human CEP76 = cep76_human CEP76 (UniProt Q8TAP6)
itf2_human TCF4 = itf2_human TCF4 (UniProt P15884)
traf1_human TRAF1 = traf1_human TRAF1 (UniProt Q13077)
hbaz_human HBZ = hbaz_human HBZ (UniProt P02008)
klhl2_human KLHL2 = klhl2_human KLHL2 (UniProt O95198)
mlh1_human MLH1 = mlh1_human MLH1 (UniProt P40692)
srtd3_human SERTAD3 = target: T1, srtd3_human SERTAD3 (UniProt Q9UJW9)
T1 sequence: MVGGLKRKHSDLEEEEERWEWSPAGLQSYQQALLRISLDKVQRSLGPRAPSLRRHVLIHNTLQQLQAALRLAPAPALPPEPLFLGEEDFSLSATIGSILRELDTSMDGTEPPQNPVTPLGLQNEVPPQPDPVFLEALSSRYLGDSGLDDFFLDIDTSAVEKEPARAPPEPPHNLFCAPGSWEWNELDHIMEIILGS

magd1_human MAGED1 = target: T2, magd1_human MAGED1 (UniProt Q9Y5V3)
T2 sequence: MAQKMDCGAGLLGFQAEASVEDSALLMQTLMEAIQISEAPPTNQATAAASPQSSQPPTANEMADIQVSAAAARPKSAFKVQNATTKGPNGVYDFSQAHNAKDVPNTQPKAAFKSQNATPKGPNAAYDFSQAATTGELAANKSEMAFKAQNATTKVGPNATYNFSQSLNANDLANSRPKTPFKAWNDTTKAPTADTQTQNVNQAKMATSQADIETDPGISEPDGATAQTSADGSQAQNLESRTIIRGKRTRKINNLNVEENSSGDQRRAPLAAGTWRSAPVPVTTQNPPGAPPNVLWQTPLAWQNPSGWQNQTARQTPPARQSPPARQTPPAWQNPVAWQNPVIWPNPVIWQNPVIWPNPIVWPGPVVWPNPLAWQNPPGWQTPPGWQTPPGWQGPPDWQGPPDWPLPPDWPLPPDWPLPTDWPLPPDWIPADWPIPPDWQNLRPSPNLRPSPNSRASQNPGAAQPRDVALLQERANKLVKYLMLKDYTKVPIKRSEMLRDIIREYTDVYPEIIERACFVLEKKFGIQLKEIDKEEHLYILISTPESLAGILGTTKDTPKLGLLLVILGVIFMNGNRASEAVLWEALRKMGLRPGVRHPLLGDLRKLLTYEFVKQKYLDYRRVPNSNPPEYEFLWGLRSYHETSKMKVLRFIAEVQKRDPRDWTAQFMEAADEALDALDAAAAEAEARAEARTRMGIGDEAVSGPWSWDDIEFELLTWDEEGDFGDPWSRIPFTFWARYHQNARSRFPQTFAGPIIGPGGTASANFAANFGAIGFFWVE

neca2_human NECAB2 = target: T3, neca2_human NECAB2 (UniProt Q7Z6G3)
T3 sequence: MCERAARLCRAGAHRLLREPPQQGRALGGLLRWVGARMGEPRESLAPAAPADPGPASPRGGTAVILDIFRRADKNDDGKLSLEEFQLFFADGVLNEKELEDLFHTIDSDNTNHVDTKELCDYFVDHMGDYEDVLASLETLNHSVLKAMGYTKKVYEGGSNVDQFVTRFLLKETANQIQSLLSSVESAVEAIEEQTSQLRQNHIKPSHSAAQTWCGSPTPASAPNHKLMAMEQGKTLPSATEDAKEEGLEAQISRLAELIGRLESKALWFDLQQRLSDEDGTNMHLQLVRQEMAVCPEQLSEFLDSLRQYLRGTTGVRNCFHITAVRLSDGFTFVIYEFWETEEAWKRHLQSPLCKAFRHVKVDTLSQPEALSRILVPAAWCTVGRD

nmna1_human NMNAT1 = nmna1_human NMNAT1 (UniProt Q9HAN9)

- effect of a mutation on the interaction (tcl1a_human TCL1A): with no effect
Substance: "DNA (cytosine-5)-methyltransferase 3A" (Homo sapiens) (from UniProt Q9Y6K1) V372I

- effect of a mutation on the interaction (hbaz_human HBZ): disrupting interaction strength
Substance: Hemoglobin subunit beta (Homo sapiens), P68871 H118Y

- effect of a mutation on the interaction (hbaz_human HBZ): disrupting interaction strength
Substance: Hemoglobin subunit beta (Homo sapiens), P68871 L115P

- effect of a mutation on the interaction (hbaz_human HBZ): disrupting interaction strength
Substance: Hemoglobin subunit beta (Homo sapiens), P68871 E122V

- effect of a mutation on the interaction (hbaz_human HBZ): disrupting interaction strength
Substance: Hemoglobin subunit beta (Homo sapiens), P68871 F123S

- effect of a mutation on the interaction (hbaz_human HBZ): disrupting interaction strength
Substance: Hemoglobin subunit beta (Homo sapiens), P68871 P101A

- effect of a mutation on the interaction (vps29_human VPS29): with no effect
Substance: Vacuolar protein sorting-associated protein 35 (Homo sapiens) (from UniProt Q96QK1) D620N

- effect of a mutation on the interaction (hbaz_human HBZ): with no effect
Substance: Hemoglobin subunit beta (Homo sapiens), P68871 N103Y

- effect of a mutation on the interaction (inca1_human INCA1): with no effect
- effect of a mutation on the interaction (cep76_human CEP76): with no effect
- effect of a mutation on the interaction (itf2_human TCF4): with no effect
Substance: Calcium-binding protein 5 (Homo sapiens), Q9NP86 G73S

- effect of a mutation on the interaction (hbaz_human HBZ): disrupting interaction strength
Substance: Hemoglobin subunit beta (Homo sapiens), P68871 D100Y

- effect of a mutation on the interaction (klhl2_human KLHL2): with no effect
Substance: Zinc finger protein 114 (Homo sapiens), Q8NC26 D61V

- effect of a mutation on the interaction (tcl1a_human TCL1A): disrupting interaction strength
Substance: "DNA (cytosine-5)-methyltransferase 3A" (Homo sapiens) (from UniProt Q9Y6K1) P904L

- effect of a mutation on the interaction (hbaz_human HBZ): disrupting interaction strength
Substance: Hemoglobin subunit beta (Homo sapiens), P68871 F104L

- effect of a mutation on the interaction (inca1_human INCA1): with no effect
- effect of a mutation on the interaction (cep76_human CEP76): with no effect
- effect of a mutation on the interaction (itf2_human TCF4): with no effect
Substance: Calcium-binding protein 5 (Homo sapiens), Q9NP86 V128A

- effect of a mutation on the interaction (srtd3_human SERTAD3): with no effect
- effect of a mutation on the interaction (magd1_human MAGED1): with no effect
- effect of a mutation on the interaction (neca2_human NECAB2): with no effect
- effect of a mutation on the interaction (nmna1_human NMNAT1): with no effect
Substance: Importin subunit alpha-1 (Homo sapiens) (from UniProt P52292) V506I

- effect of a mutation on the interaction (hbaz_human HBZ): disrupting interaction strength
Substance: Hemoglobin subunit beta (Homo sapiens), P68871 T88P

- effect of a mutation on the interaction (klhl2_human KLHL2): with no effect
Substance: Zinc finger protein 114 (Homo sapiens), Q8NC26 Q357P

- effect of a mutation on the interaction (srtd3_human SERTAD3): with no effect
- effect of a mutation on the interaction (magd1_human MAGED1): with no effect
- effect of a mutation on the interaction (neca2_human NECAB2): with no effect
- effect of a mutation on the interaction (nmna1_human NMNAT1): with no effect
Substance: Importin subunit alpha-1 (Homo sapiens) (from UniProt P52292) V506D

- effect of a mutation on the interaction (vps29_human VPS29): with no effect
Substance: Vacuolar protein sorting-associated protein 35 (Homo sapiens) (from UniProt Q96QK1) L227F

- effect of a mutation on the interaction (inca1_human INCA1): with no effect
- effect of a mutation on the interaction (cep76_human CEP76): with no effect
- effect of a mutation on the interaction (itf2_human TCF4): disrupting interaction strength
Substance: Calcium-binding protein 5 (Homo sapiens), Q9NP86 T65R

More lines, now with the values behind:

Substance: "DNA (cytosine-5)-methyltransferase 3A" (Homo sapiens) (from UniProt Q9Y6K1) N501S
- effect of a mutation on the interaction (tcl1a_human TCL1A): with no effect

Substance: Vacuolar protein sorting-associated protein 35 (Homo sapiens) (from UniProt Q96QK1) R524W
- effect of a mutation on the interaction (vps29_human VPS29): with no effect

Substance: Calcium-binding protein 5 (Homo sapiens), Q9NP86 R44Q
- effect of a mutation on the interaction (inca1_human INCA1): with no effect
- effect of a mutation on the interaction (cep76_human CEP76): with no effect
- effect of a mutation on the interaction (itf2_human TCF4): with no effect

Substance: Zinc finger protein 502 (Homo sapiens), Q8TBZ5 Q174R
- effect of a mutation on the interaction (traf1_human TRAF1): with no effect

Substance: Hemoglobin subunit beta (Homo sapiens), P68871 E7K
- effect of a mutation on the interaction (hbaz_human HBZ): disrupting interaction strength

Substance: Hemoglobin subunit beta (Homo sapiens), P68871 S10C
- effect of a mutation on the interaction (hbaz_human HBZ): disrupting interaction strength

Substance: Zinc finger protein 114 (Homo sapiens), Q8NC26 A229P
- effect of a mutation on the interaction (klhl2_human KLHL2): with no effect

Substance: Importin subunit alpha-1 (Homo sapiens) (from UniProt P52292) P216S
- effect of a mutation on the interaction (mlh1_human MLH1): with no effect
- effect of a mutation on the interaction (srtd3_human SERTAD3): with no effect
- effect of a mutation on the interaction (magd1_human MAGED1): with no effect
- effect of a mutation on the interaction (neca2_human NECAB2): with no effect
- effect of a mutation on the interaction (nmna1_human NMNAT1): with no effect

Substance: Hemoglobin subunit beta (Homo sapiens), P68871 V114E
- effect of a mutation on the interaction (hbaz_human HBZ): disrupting interaction strength

Substance: Zinc finger protein 502 (Homo sapiens), Q8TBZ5 T184A
- effect of a mutation on the interaction (traf1_human TRAF1): with no effect

Substance: Hemoglobin subunit beta (Homo sapiens), P68871 V127G
- effect of a mutation on the interaction (hbaz_human HBZ): disrupting interaction strength

Substance: Hemoglobin subunit beta (Homo sapiens), P68871 G57D
- effect of a mutation on the interaction (hbaz_human HBZ): with no effect

Substance: Hemoglobin subunit beta (Homo sapiens), P68871 E7V
- effect of a mutation on the interaction (hbaz_human HBZ): disrupting interaction strength

Substance: Importin subunit alpha-1 (Homo sapiens) (from UniProt P52292) N86S
- effect of a mutation on the interaction (mlh1_human MLH1): with no effect
- effect of a mutation on the interaction (srtd3_human SERTAD3): with no effect
- effect of a mutation on the interaction (magd1_human MAGED1): with no effect
- effect of a mutation on the interaction (neca2_human NECAB2): with no effect
- effect of a mutation on the interaction (nmna1_human NMNAT1): with no effect

Substance: Importin subunit alpha-1 (Homo sapiens) (from UniProt P52292) R117W
- effect of a mutation on the interaction (mlh1_human MLH1): with no effect
- effect of a mutation on the interaction (srtd3_human SERTAD3): with no effect
- effect of a mutation on the interaction (magd1_human MAGED1): with no effect
- effect of a mutation on the interaction (neca2_human NECAB2): with no effect
- effect of a mutation on the interaction (nmna1_human NMNAT1): with no effect

Substance: Zinc finger protein 114 (Homo sapiens), Q8NC26 K404E
- effect of a mutation on the interaction (klhl2_human KLHL2): with no effect

Substance: Hemoglobin subunit beta (Homo sapiens), P68871 E102Q
- effect of a mutation on the interaction (hbaz_human HBZ): disrupting interaction strength

Substance: Importin subunit alpha-1 (Homo sapiens) (from UniProt P52292) R117Q
- effect of a mutation on the interaction (mlh1_human MLH1): with no effect
- effect of a mutation on the interaction (srtd3_human SERTAD3): with no effect
- effect of a mutation on the interaction (magd1_human MAGED1): with no effect
- effect of a mutation on the interaction (neca2_human NECAB2): with no effect
- effect of a mutation on the interaction (nmna1_human NMNAT1): with no effect

Substance: Zinc finger protein 114 (Homo sapiens), Q8NC26 H99N
- effect of a mutation on the interaction (klhl2_human KLHL2): with no effect

Substance: "DNA (cytosine-5)-methyltransferase 3A" (Homo sapiens) (from UniProt Q9Y6K1) E30A
- effect of a mutation on the interaction (tcl1a_human TCL1A): with no effect

Substance: Zinc finger protein 114 (Homo sapiens), Q8NC26 E19G
- effect of a mutation on the interaction (klhl2_human KLHL2): with no effect
